Results as given in patent US5985836A, “Alpha-1 proteinase inhibitor binding peptides” (Bayer Corporation, priority 1998, dated 1999).
Each block holds one substance with its values, some of them ahead of it. Ends that are not written are not given here.

Tests used:
A1PI [1] = biological target: T1, A1PI (Homo sapiens, UniProt P01009); test: A1PI yield from dialyzed (aqueous) Effluent II+III; type: binding; details: 4° C.; for Mass A1PI per Eluate Fraction, 1M NaCl / Mass A1PI per Eluate Fraction, 2% Acetic Acid / Mass A1PI per Eluate Fraction, Flowthrough: 1 ml dialyzed Eff. II+III (ethanol removed); for Percent Eluted by Fraction, 1M NaCl / Percent Eluted by Fraction, 2% Acetic Acid / Percent Eluted by Fraction, Flowthrough: A1PI, 1 ml dialyzed Eff. II+III
T1 construct: Human plasma is currently the only approved source of therapeutic AlPI
T1 sequence (P01009 25-418): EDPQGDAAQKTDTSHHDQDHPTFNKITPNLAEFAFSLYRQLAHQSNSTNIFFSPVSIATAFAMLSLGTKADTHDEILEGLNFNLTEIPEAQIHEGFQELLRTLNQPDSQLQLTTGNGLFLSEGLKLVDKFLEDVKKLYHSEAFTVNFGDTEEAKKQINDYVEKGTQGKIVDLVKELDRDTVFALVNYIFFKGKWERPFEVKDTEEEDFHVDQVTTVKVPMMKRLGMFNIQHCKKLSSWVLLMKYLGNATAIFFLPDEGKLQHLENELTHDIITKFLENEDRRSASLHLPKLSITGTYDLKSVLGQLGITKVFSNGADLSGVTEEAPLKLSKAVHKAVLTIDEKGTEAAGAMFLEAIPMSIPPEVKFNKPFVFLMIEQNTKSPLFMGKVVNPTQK
Description: Effluent II+III was dialyzed against equilibration buffer at 4° C. to remove the ethanol using a 15,000 molecular weight cut-off membrane. Nephelometry of the Eff. […] A portion of the identified sequences were assayed under the same conditions applied for neat Eff. II+III at 4° C. […] II+III compared to the neat, ethanol-containing feed. The binding strength differed for the aqueous feed as more AlPI eluted in 1M NaCl for the aqueous feed. The AlPI eluted in the 1M NaCl fractions was not as enriched as that eluted in the acid eluates.

Immunoglobulin G (IgG) = test: Purification from Effluent II+III, IgG mass balance; type: binding, human; details: 1 ml Eff. II+III, 4° C.
Description: (§1) Sequences 1-11 and 15 were assayed with Effluent II+III (Eff. II+III). Eff. II+III is a process intermediate in the Cohn plasma fractionation process. The feed stream contains 20% (by volume) ethanol, 20-25 mg/ml hSA and approximately 1 mg/ml AlPI. The stream also contains other proteins including anti-thrombin III (AT3), immunoglobin G (IgG), immunoglobin A (IgA), apolipoprotein alpha-1 (Apo A-1), transferrin (Trf), haptoglobin (Hpt), and alpha-1 acid glycoprotein (AAG) at concentrations ranging from 0.1-1 mg/ml.
(§2) The columns were assayed using the same technique as the hSA+AlPI experiments, allowing for a 10 minute residence time followed by a constant flow rate of 865 μl/min with step elutions of 1M NaCl, 3M NaCl, and 2% acetic acid. All experiments were conducted at 4° C. The mass balances for the injection of 1 ml Eff. […] The AlPI was enriched from 3% of the total protein in the feed to upwards of 50% in the acid eluate.

Immunoglobulin A (IgA) = test: Purification from Effluent II+III, IgA mass balance; type: binding, human; details: 1 ml Eff. II+III, 4° C.
Description: as §1, §2

A1PI [2] = biological target: T1, A1PI; test: A1PI binding on peptide-resin column, injection of 1 mg A1PI in equilibration buffer; details: for % of Total A1PI Eluted by Fraction (Based on Absorbance at 280 nm), 1M NaCl / % of Total A1PI Eluted by Fraction (Based on Absorbance at 280 nm), 2% Acetic Acid / % of Total A1PI Eluted by Fraction (Based on Absorbance at 280 nm), Flowthrough: Trp position mutations, 1 mg A1PI
Method in brief: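 Percent of total eluted A1PI per fraction (flowthrough, NaCl steps, 2% acetic acid) determined by A280 integration or immunonephelometry. Columns of peptide-derivatized A-Totda-Toyopearl resin (0.1 mmole/g) received 1 mg A1PI at 4 °C or 20 °C, flow 865 or 523 μl/min.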

A1PI [3] = biological target: T1, A1PI; test: Purification of A1PI from Effluent II+III on peptide column, A1PI mass balance; type: binding; details: 1 ml Eff. II+III, 4° C.
Description: as §1, §2

[4] = biological target: T2, apolipoprotein alpha-1 (Apo A-1) (Homo sapiens, UniProt P02647); test: Purification from Effluent II+III, Apo A-1 mass balance; type: binding; details: 1 ml Eff. II+III, 4° C.
T2 construct: Eff; II+III is a process intermediate in the Cohn plasma fractionation process; tissue Bayer Corporation (Clayton, N.C.); host or cells: plasma fraction: Cohn Effluent II+III
T2 sequence (P02647 19-267): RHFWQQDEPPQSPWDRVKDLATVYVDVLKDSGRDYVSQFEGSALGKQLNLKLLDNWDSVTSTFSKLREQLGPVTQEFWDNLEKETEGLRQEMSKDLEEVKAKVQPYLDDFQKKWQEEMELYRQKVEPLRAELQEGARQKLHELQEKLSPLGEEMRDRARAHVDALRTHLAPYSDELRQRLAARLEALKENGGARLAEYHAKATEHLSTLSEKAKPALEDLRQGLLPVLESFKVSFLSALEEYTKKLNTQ
Description: as §1, §2

A1PI [5] = biological target: T1, A1PI; test: A1PI purification from 5 mg hSA + 1 mg A1PI on peptide column, A1PI mass balance; type: binding; details: A1PI, 5 mg hSA + 1 mg A1PI; for Mass Protein per Eluate Fraction, 1M NaCl / Mass Protein per Eluate Fraction, 2% Ac. Acid / Mass Protein per Eluate Fraction, Flow / Mass Protein per Eluate Fraction, 2% Acetic Acid: * Below detection limit
Description: Confirmatory binding assays were performed in a column chromatographic format on a microbore HPLC using individual peptide sequences synthesized directly onto the Toyopearl 650 M Chelate resin which had been modified with Totda followed by an alanine residue (A-Totda-Toyopearl), at a final substitution density of 0.1 mmole/g resin. The resin was packed into 0.4×5 cm columns (Thomson, Springfield, Va.) and tested on the Michrom HPLC system (Michrom BioResources, Auburn, Calif.). The elution program for all trials utilized the following method. The column was pre-equilibrated with equilibration buffer (as above). 1 ml of sample was injected and allowed sufficient time to flowthrough the column using equilibration buffer. The column was then washed with step elutions of 1M NaCl and 3M NaCl in equilibration buffer. The column was exposed to equilibration buffer with 0.1M NaCl. Any remaining protein was eluted with elution buffer (2% by volume glacial acetic acid in water).
A Gilson FC204 fraction collector at the HPLC outlet collected individual eluates for further analysis. Fractions collected from the 2% acetic acid eluates were neutralized with 2M Tris, pH 10.5 to bring the pH to neutrality. The protein samples were reconstituted in equilibration buffer unless otherwise stated. The samples were analyzed by the integration of the absorbance at 280 nm or by immunonephelometry. The specific method of determination is presented for each figure.
Columns were assayed with a mixture of 5 mg human serum albumin (hSA)+1 mg AlPI at 4° C. (Table 4, Seq. ID 1-11, 15, 17) and 20° C. (Table 5, Seq. ID 1-10, 13, 15, 17). The chromatography method was modified to provide for a 10 minute residence time of sample in the column by decreasing the flow to 17 μl/min (10 cm/hr) upon injection. Following the incubation, the flow was set at 865 μl/min (413 cm/hr) for the step elutions of 1M NaCl, 3M NaCl, and 2% acetic acid. The mass balances presented are based upon immunonephelometry. The Percent Eluted value is protein-specific and based on the amount of the protein eluted in a […]

[6] = * as in Tables 4, 5 (below detection limit)
[7] = 1 mg A1PI in equilibration buffer, 4° C.
[8] = 1 mg A1PI in equilibration buffer, 20° C.
[9] = A1PI, * as in Tables 4, 5 (below detection limit)
[10] = 4° C., relative to total eluted
[11] = 20° C., relative to total eluted
[12] = Table 11, * Below detection limit
[13] = Table 10, 4° C., relative to total loaded
[14] = Table 10, 20° C., relative to total loaded

- Mass A1PI per Eluate Fraction, 1M NaCl (A1PI [1]): 0.05 mg
- Mass A1PI per Eluate Fraction, 2% Acetic Acid (A1PI [1]): 0.38 mg
- Mass A1PI per Eluate Fraction, Flowthrough (A1PI [1]): 0.19 mg
- Percent Eluted by Fraction, 1M NaCl (A1PI [1]): 9%
- Percent Eluted by Fraction, 2% Acetic Acid (A1PI [1]): 60%
- Percent Eluted by Fraction, Flowthrough (A1PI [1]): 31%
- Percent A1PI Eluted by Fraction Based on Absorbance at 280 nm, 1M NaCl (A1PI [2]; [7]): 52%
- Percent A1PI Eluted by Fraction Based on Absorbance at 280 nm, 2% Acetic Acid (A1PI [2]; [7]): 48%
- Percent A1PI Eluted by Fraction Based on Absorbance at 280 nm, Flowthrough (A1PI [2]; [7]): 0%
- Percent A1PI Eluted by Fraction, 1M NaCl (A1PI [2]; [8]): 17%
- Percent A1PI Eluted by Fraction, 2% Acetic Acid (A1PI [2]; [8]): 55%
- Percent A1PI Eluted by Fraction, Flowthrough (A1PI [2]; [8]): 28%
- Percent Eluted by Fraction, 1M NaCl (A1PI [3]; A1PI): 0%
- Percent Eluted by Fraction, 2% Acetic Acid (A1PI [3]; A1PI): 79%
- Percent Eluted by Fraction, 3M NaCl (A1PI [3]; A1PI): 0%
- Percent Eluted by Fraction, Flow (A1PI [3]; A1PI): 21%
- Mass Protein per Eluate Fraction, 2% Acetic Acid (A1PI [3]; [9]): 0.50 mg
- Mass Protein per Eluate Fraction, Flow (A1PI [3]; [9]): 0.13 mg
- Percent Eluted by Fraction, 1M NaCl [4]: 0%
- Percent Eluted by Fraction, 2% Acetic Acid [4]: 100%
- Percent Eluted by Fraction, 3M NaCl [4]: 0%
- Percent Eluted by Fraction, Flow [4]: 0%
- Mass Protein per Eluate Fraction, 2% Acetic Acid [4, 6]: 0.43 mg
- Mass Protein per Eluate Fraction, 1M NaCl (A1PI [5]; 4° C.): 0.10 mg
- Mass Protein per Eluate Fraction, 2% Ac. Acid (A1PI [5]; 4° C.): 0.18 mg
- Mass Protein per Eluate Fraction, Flow (A1PI [5]; 4° C.): 0.52 mg
- Percent Eluted by Fraction, 1M NaCl (A1PI [5]; [10]): 13%
- Percent Eluted by Fraction, 2% Ac. Acid (A1PI [5]; [10]): 23%
- Percent Eluted by Fraction, 3M NaCl (A1PI [5]; [10]): 0%
- Percent Eluted by Fraction, Flow (A1PI [5]; [10]): 65%
- Mass Protein per Eluate Fraction, 1M NaCl (A1PI [5]; 20° C.): 0.07 mg
- Mass Protein per Eluate Fraction, 2% Ac. Acid (A1PI [5]; 20° C.): 0.47 mg
- Mass Protein per Eluate Fraction, Flow (A1PI [5]; 20° C.): 0.26 mg
- Percent Eluted by Fraction, 1M NaCl (A1PI [5]; [11]): 9%
- Percent Eluted by Fraction, 2% Ac. Acid (A1PI [5]; [11]): 58%
- Percent Eluted by Fraction, 3M NaCl (A1PI [5]; [11]): 0%
- Percent Eluted by Fraction, Flow (A1PI [5]; [11]): 33%
Substance: IIWLYK
- Percent Eluted by Fraction, 1M NaCl (Immunoglobulin G (IgG)): 9%
- Percent Eluted by Fraction, 2% Acetic Acid (Immunoglobulin G (IgG)): 0%
- Percent Eluted by Fraction, 3M NaCl (Immunoglobulin G (IgG)): 0%
- Percent Eluted by Fraction, Flow (Immunoglobulin G (IgG)): 91%
- Mass Protein per Eluate Fraction, 1M NaCl (Immunoglobulin G (IgG); [6]): 0.02 mg
- Mass Protein per Eluate Fraction, Flow (Immunoglobulin G (IgG); [6]): 0.23 mg
- Percent Eluted by Fraction, 1M NaCl (Immunoglobulin A (IgA)): 34%
- Percent Eluted by Fraction, 2% Acetic Acid (Immunoglobulin A (IgA)): 49%
- Percent Eluted by Fraction, 3M NaCl (Immunoglobulin A (IgA)): 0%
- Percent Eluted by Fraction, Flow (Immunoglobulin A (IgA)): 17%
- Mass Protein per Eluate Fraction, 1M NaCl (Immunoglobulin A (IgA); [6]): 0.12 mg
- Mass Protein per Eluate Fraction, 2% Acetic Acid (Immunoglobulin A (IgA); [6]): 0.17 mg
- Mass Protein per Eluate Fraction, Flow (Immunoglobulin A (IgA); [6]): 0.06 mg

- Mass A1PI per Eluate Fraction, 1M NaCl (A1PI [1]): 0.12 mg
- Mass A1PI per Eluate Fraction, 2% Acetic Acid (A1PI [1]): 0.16 mg
- Mass A1PI per Eluate Fraction, Flowthrough (A1PI [1]): 0.46 mg
- Percent Eluted by Fraction, 1M NaCl (A1PI [1]): 16%
- Percent Eluted by Fraction, 2% Acetic Acid (A1PI [1]): 22%
- Percent Eluted by Fraction, Flowthrough (A1PI [1]): 62%
- % of Total A1PI Eluted by Fraction (Based on Absorbance at 280 nm), 1M NaCl (A1PI [2]; 4° C.): 28%
- % of Total A1PI Eluted by Fraction (Based on Absorbance at 280 nm), 2% Acetic Acid (A1PI [2]; 4° C.): 72%
- % of Total A1PI Eluted by Fraction (Based on Absorbance at 280 nm), Flowthrough (A1PI [2]; 4° C.): 0%
- % of Total A1PI Eluted by Fraction (Based on Absorbance at 280 nm), 1M NaCl (A1PI [2]; 20° C.): 15%
- % of Total A1PI Eluted by Fraction (Based on Absorbance at 280 nm), 2% Acetic Acid (A1PI [2]; 20° C.): 85%
- % of Total A1PI Eluted by Fraction (Based on Absorbance at 280 nm), Flowthrough (A1PI [2]; 20° C.): 0%
- Mass A1PI per Eluate Fraction, 1M NaCl (A1PI [3]; [12]): 0.05 mg
- Mass A1PI per Eluate Fraction, 2% Acetic Acid (A1PI [3]; [12]): 0.57 mg
- Mass A1PI per Eluate Fraction, Flowthrough (A1PI [3]; [12]): 0.22 mg
- Percent Eluted by Fraction, 1M NaCl (A1PI [3]; Table 11, A1PI): 6%
- Percent Eluted by Fraction, 2% Acetic Acid (A1PI [3]; Table 11, A1PI): 68%
- Percent Eluted by Fraction, Flowthrough (A1PI [3]; Table 11, A1PI): 27%
- Mass Protein per Eluate Fraction, 1M NaCl (A1PI [5]; Table 10, 4° C.): 0.12 mg
- Mass Protein per Eluate Fraction, 2% Acetic Acid (A1PI [5]; Table 10, 4° C.): 0.75 mg
- Mass Protein per Eluate Fraction, Flow (A1PI [5]; Table 10, 4° C.): 0.12 mg
- Percent Eluted by Fraction, 1M NaCl (A1PI [5]; [13]): 12%
- Percent Eluted by Fraction, 2% Acetic Acid (A1PI [5]; [13]): 76%
- Percent Eluted by Fraction, 3M NaCl (A1PI [5]; [13]): 0%
- Percent Eluted by Fraction, Flow (A1PI [5]; [13]): 12%
- Mass Protein per Eluate Fraction, 1M NaCl (A1PI [5]; Table 10, 20° C.): 0.07 mg
- Mass Protein per Eluate Fraction, 2% Acetic Acid (A1PI [5]; Table 10, 20° C.): 0.48 mg
- Mass Protein per Eluate Fraction, Flow (A1PI [5]; Table 10, 20° C.): 0.13 mg
- Percent Eluted by Fraction, 1M NaCl (A1PI [5]; [14]): 11%
- Percent Eluted by Fraction, 2% Acetic Acid (A1PI [5]; [14]): 70%
- Percent Eluted by Fraction, 3M NaCl (A1PI [5]; [14]): 0%
- Percent Eluted by Fraction, Flow (A1PI [5]; [14]): 19%
Substance: VIYLVR: VIWLVR with Trp at position 3 replaced by Tyr
